Data from article PMC5444381.
Like-named read-outs stand apart in the source and are kept apart here.

Legend:
[1] = molecular target: BaL.01 Env trimeric spikes on pseudotyped viruses (HIV-1 BaL.01)
[2] = molecular target: BaL.01 Env trimeric spikes on pseudotyped viruses (HIV-1 BaL.01); remark: listed apart in the source
[3] = molecular target: BaL.01 Env trimeric spikes on pseudotyped viruses (HIV-1 BaL.01); remark: listed apart in the source

DAVEI-L4(ΔCRAC) gave an EC50 of virolysis (p24 release from HIV-1 BaL.01 pseudovirus, sandwich ELISA) [1] of 28.3 nM and an IC50 of inhibition of HIV-1 BaL.01 pseudovirus infection of HOS.T4.R5 cells [1] of 1.1 nM.
With DAVEI-L4(ΔCRAC)-W3,7,9,15A the IC50 of inhibition of HIV-1 BaL.01 pseudovirus infection of HOS.T4.R5 cells [2] was 0.78 nM and the EC50 of virolysis (p24 release from HIV-1 BaL.01 pseudovirus, sandwich ELISA) [3] was 122 nM.
DAVEI-L4(ΔCRAC)-W7,9,15A was tested, and the IC50 of inhibition of HIV-1 BaL.01 pseudovirus infection of HOS.T4.R5 cells [2] was 0.36 nM and the EC50 of virolysis (p24 release from HIV-1 BaL.01 pseudovirus, sandwich ELISA) [3] was 43.1 nM.
For DAVEI-L4(ΔCRAC)W9,15A, the IC50 of inhibition of HIV-1 BaL.01 pseudovirus infection of HOS.T4.R5 cells [2] was 0.45 nM and the EC50 of virolysis (p24 release from HIV-1 BaL.01 pseudovirus, sandwich ELISA) [3] was 49.7 nM.
For DAVEI-L4(ΔCRAC)W15A, the IC50 of inhibition of HIV-1 BaL.01 pseudovirus infection of HOS.T4.R5 cells [2] was 0.4 nM and the EC50 of virolysis (p24 release from HIV-1 BaL.01 pseudovirus, sandwich ELISA) [3] was 46.8 nM.
DAVEI-L4(ΔMPER) gave an IC50 of inhibition of HIV-1 BaL.01 pseudovirus infection of HOS.T4.R5 cells [1] of 1.4 nM.
